Publication PMC5347692, “Serpin E2 promotes breast cancer metastasis by remodeling the tumor matrix and polarizing tumor associated macrophages” (Oncotarget, 2016)

Biological target: T1, human recombinant tPA (human, UniProt P00750 36-562)
T1 construct: The sentence 'Human recombinant serpinE2 and tPA were purchased from R&D' is read as human for both; source: bought: R&D
Assay: SDS-stable complex seen by western blot; recombinant serpinE2 and tPA bound to each other beforehand, complex immunoprecipitated with Ab11 and Protein G, western blot with a serpinE2-specific antibody; complex band above uncomplexed serpinE2
Conditions: both partners purified

T1 sequence (P00750 36-562): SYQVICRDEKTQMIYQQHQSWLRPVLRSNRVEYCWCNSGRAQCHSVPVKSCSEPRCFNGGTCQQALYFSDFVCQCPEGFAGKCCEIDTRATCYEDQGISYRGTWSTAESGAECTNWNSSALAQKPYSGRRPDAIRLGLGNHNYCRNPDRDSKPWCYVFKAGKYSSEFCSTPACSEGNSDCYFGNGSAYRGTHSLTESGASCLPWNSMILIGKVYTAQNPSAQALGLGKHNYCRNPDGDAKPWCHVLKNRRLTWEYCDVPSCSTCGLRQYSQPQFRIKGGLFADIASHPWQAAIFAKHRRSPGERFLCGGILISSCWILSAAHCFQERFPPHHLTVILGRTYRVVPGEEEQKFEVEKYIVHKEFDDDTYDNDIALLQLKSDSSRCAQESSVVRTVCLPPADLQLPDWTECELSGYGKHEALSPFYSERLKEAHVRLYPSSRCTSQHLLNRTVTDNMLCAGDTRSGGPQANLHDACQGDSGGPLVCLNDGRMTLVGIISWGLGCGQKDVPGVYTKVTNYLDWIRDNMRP

B1: human recombinant serpinE2 (natural protein, UniProt P07093 20-398, looked up)
chain: SHFNPLSLEELGSNTGIQVFNQIVKSRPHDNIVISPHGIASVLGMLQLGADGRTKKQLAMVMRYGVNGVGKILKKINKAIVSKKNKDIVTVANAVFVKNASEIEVPFVTRNKDVFQCEVRNVNFEDPASACDSINAWVKNETRDMIDNLLSPDLIDGVLTRLVLVNAVYFKGLWKSRFQPENTKKRTFVAADGKSYQVPMLAQLSVFRCGSTSAPNDLWYNFIELPYHGESISMLIALPTESSTPLSAIIPHISTKTIDSWMSIMVPKRVQVILPKFTAVAQTDLKEPLKVLGITDMFDSSKANFAKITTGSENLHVSHILQKAKIEVSEDGTKASAATTAILIARSSPPWFIVDRPFLFFIRHNPTGAVLFMGQINKP
notes: serpinE2 (PN-1, protease nexin-1), human, recombinant, bought; With tPA it forms the serpin/protease complex that is seen as a band above uncomplexed serpinE2 on the western blot; also called PN-1; purified human serpinE2; source: bought: R&D
B1: binds.
